The data set is described as follows: yeast display, Sf9 membrane polyspecificity reagent, FACS + sequencing; frameworks hold sequencing errors. Summed up:
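A nanobody's polyreactivity label depends on the gate it was sorted from. Yeast display cells were stained with 10% biotinylated, detergent-solubilized Sf9 membrane reagent for 1 hour at 4 °C, enriched on streptavidin microbeads and sorted by FACS. The low and high (top ~1%) gates were set on anti-HA fluorescence for expression and streptavidin fluorescence for reagent binding.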
As for “QVQLVESGGGLVPAGGSLRLSCAASGYTFQYNDRGWYRHAPGKETELVAGISIGGSTNYADSVKGRFTISRDNAKHTVYLQMNSLKPEDTAVYYCAARTLWFPGPTSTTVGYKDGYWGQGTQVTVSS”, the “polyreactivity (PSR sort gate)” value is “low polyreactivity”. Take “QVQLVESGGGLVQAGGSLRLSCAASGFIFRDYAMGWYRQAPGKERELVAAISWSSDSTYYADSVKWRFTISRDNAKNTVYLQMNSLKPEDTAVYYCAAKGLRGYWWGFDYWGQGTQVTVSS”: the “polyreactivity (PSR sort gate)” value is listed as “low polyreactivity”.

Regarding “QVQLHESGGGLVQAGGSLRLSCAASGTISYAGPMGWYRQAPGKEREFVAGIGVGSNTNYADSVKGRYTIIRDNAKNTVYLQMNSLQPEDTAVYYCAVGGFAPLGRPYWGQGTQVTVSS”, the “polyreactivity (PSR sort gate)” value is on record as “low polyreactivity”. For the sequence “QVQLVESGGGLVQAGGSLRLSCAASGRTFTGNAMGWYRQAPGKERELVAAISTSGTRTTYADSVKGRFTISRDNAKNPVYLQMTSLKPEDTAVYYCAALRKCLYRTYTYDYWGQGTQVTVSS”, the “polyreactivity (PSR sort gate)” value is “high polyreactivity”. Under “QVQLVESGGGLVQAGGSLRLSCAASGSIIYNNAMGWYRQAPGKERELVAAIRSTGTRTYYADSVKGRFTISRDNAKNTVYLQMNSLKPEDTAVYYCAVGDYGLWSYVYWGQGTQVTVSS” stands “low polyreactivity”.

Take “QVQLVESGGGLVQAGVSLRLSCAASGRIFPYNAMGWDRQAPGKERELVAAIDWSGGRTYYADSVKGRFTISRDNAKNTDYLQMNSLKPEDTALYYCAAAYGGRLRYTAGYYWGQGTQVTVSS”: the “polyreactivity (PSR sort gate)” value is “high polyreactivity”. The value for “QVQLVESGGGLVQAGGSLRLSCADSGSTFDDNAMGWYRQAPGKDRELVASITYRGGSTYYADSVKGRFTISRDNAKNTVYLQMNSLKPEDTAVYYCAKGHYFKYDYWGQGTQVTVSS” was “low polyreactivity”; that for “QFQLVESGGGLVQAGGSLRLSFAPSGSTFSYYAMGWYRPAPGKERELVAAISSRGGSTYYADSVKGRFTISRYNAKNTFYFQMNCLKAEDTDVYYSAAVLRGPDPTSTYYSWGQGTQVTVSS” was “high polyreactivity”; that for “QVQLVESGGGLVQAGGSLRITCAASGLTFPPNAMGWYRQAPGKERELVAAITRSGGSTYYADSVKGRFTISRDNAKNTFYLQMNSLKPEDTAVYYCAVYLPYSQRYVHYYYWGQGPQVTVSS” was “high polyreactivity”. With “QVQLVESGGGLVQAGGSLRLSCAASGIIYAYYAMGWYRQAPGKERELVAAISRSGGITYYADSVKGRFTISRDNAKNTVYLQMNSLKPEDTAVYYCARYSSRPYDYWGQGTQVTVSS”, the “polyreactivity (PSR sort gate)” value is recorded as “high polyreactivity”. For the sequence “QVQLVESRGGLVQAGGSLRLSYAASGITFRKYAIGWYRQAPGKESELVAAISWSGGSTYYADSVKGGFTISRDNAMNTVYLQMNSMKPEDTAVYYCAAPHWSPYDYWGQGTQVTVSS”, the “polyreactivity (PSR sort gate)” value is reported as “high polyreactivity”. The value for “QVQLVESGGGLVQAGGSLRLSCAASGSTFHYYVMRWYRQAPGKERELVAAIRRSGGTTYYADSVKGRFTISRDNAKNTVYLQMNSLKPEDTAVYYCAAPGWYGGYPSYYYWGQGTQVSVSS” was “low polyreactivity”; that for “QVQLVESGGGLVQAGGSLRLSCAASGNIFVAYAMGWYRQAPGKERELVAAITYNGGRTYYADSVKGRFTISRDNAKNTVYLQMNSLKPEDTAVYYCAARGYNPYGRKVGYWGQGTQVTVSS” was “high polyreactivity”; that for “QVQLVESGGGLVQAGGTLRLSCAASGITFHRYDMGWYRQAPGKERELVADITWSGGSTYYADSVKGRFTISRDNAKNTVYLQMNSLKPEDTAVYYCAADASTYTYTPYDNWGQGTQVTVSS” was “low polyreactivity”. Under “QVQLVESGGGLVQAGGSLRLSCAASGRIFLANAMGWYRQAPGKERELVAAISYSGGSTYYADSVKGRFTISRDNAKNTVYLQMNSLKPEDTAVYYCAADAFTWYTGRAWKYYYWGQGTQVTVSS” stands “low polyreactivity”; under “QVQLVESGGGLVQAGGSLRLSCAASGRTFAGYAMGWYRQAPGKERELVATISRNGGSTYYADSVKGRFTISRDNAKNTVYLQMNSLKPEDTAVYYCAADRRGVVRFSRYRGIYDYWGQGTQVTVSS”, “high polyreactivity”; under “QVQLVESGGGLVQAGGSLRLSCAASGRIFVGNTMGWYRQAPGKERELVAAITRSGGSTYYADSAKGRFTISRDNAKNTVYLQMNSLKPEDTAVYYCAARRRGDYWGQGTQVTVSS”, “high polyreactivity”. The value for “QVQLEESGGGLVQAGGSLRLSCAASGRTSRSYTMGWYRQAPGKERELVAAITRGGRTYYADSVKGRFTISRDNANNTVYLQMNSLKPEDTAVYYCDTVRVQSYGYWGQGTQVTVSS” was “low polyreactivity”. For the sequence “QVQLVESGGGLVQAGGSLRLSCAASGRIFTRYAMGWYRQAPGKERELVATITRRGGSTYYADSVKGRFTISRDNAKNTVYLQMNSLKPEDTAVYYCAKDRTTSSFGEYDYWGQGTQVTVSS”, the “polyreactivity (PSR sort gate)” value was “high polyreactivity”. Under “QVQLVESGGGLVQAGGSLRLSCAASGFTFSYYAMGWYRQATGKETELVAGIDYSGGSTYYADSVKGRFTISRDNAKNTVYLQMNCLKPEDTAVYYCNAVYARIYYYSHGYDYWGQGTQVTVSS” stands “high polyreactivity”; under “QVHLVESGVGLVQSGGSIRLTCAASGSTFHVYTKGSYRQAPGKEREFVASISCSGSSTYYADSVKGRFTISRDNAKNTVYLQMNSLKPEDTAVYYCNVDRWWLGWYKFNYWGQGTQVTVSS”, “high polyreactivity”.

Take “QVQLVESGGGLVQAGGSLRLSSAASGRIFNPNGMGWYRQAPGKDRELVAVITRSGTSTYYADSVKGRFTISREYAKNTFYRQMYSLKPEDTAVYYCNAGKKYVDYGVLSSRYYWGQGTQVTVSS”: the “polyreactivity (PSR sort gate)” value is on record as “low polyreactivity”. The value for “QVQLVESGGGLVQAGGRLRLSCAASGRIFLGNVMGWYRQAPGKERELVAAISSGGSTNYADSVKGRFTISRDNAKNTVYLQMNSLKPEDTAVYYCAAYFVRDWKLYYYWGQGTQVTVSS” was “low polyreactivity”. As to “QVQLVESGGGLVQAGGSLRLSCAASGRTFNRYAMGWYRQAPGKERELVAAISWSGGRTYYADSVKGRFTISRDNAKNTVYLQMNSMIPEATAVYYCAKEAYFRYDYCGQGTQVTVSS”, the “polyreactivity (PSR sort gate)” value is “low polyreactivity”. Regarding “QVQLVESGGGLVQAGGSLRLSCAASGYTVTSNAMGWYRQAPGKERELVAAITNVGSTNYADSVKGRFTISRDNAKNTVYLQMNSLKPEDTAVYYCAADWDAVYLQTADYDYWGQGSQVTVSS”, the “polyreactivity (PSR sort gate)” value was “low polyreactivity”. For “QVQLVESGGGLVQAGGTLRLSCAASGRISAFNAMGWYRQAPGKERELVAAIHVSGGNTYYADSVKGRFTISRDNAKNTVYLQMNSLKPEDTAVYYCAAERRRWGVDYYYWGQGTQVTVST”, the “polyreactivity (PSR sort gate)” value is “high polyreactivity”.

For the sequence “QVQLVESGGGLVQAGGSLRLSCAASGLIYSYYVMGWNRQAPGKERELVPAINESGGRTYYADSVKGRFTISRDNAKNTVYLEMNSLKPEDTAVYYCAASVLNKIQGYRDYYCGQGTQVTVSS”, the “polyreactivity (PSR sort gate)” value is “low polyreactivity”.

With “QVQLVESGGGLVQAGGSLRLSCAASGFIFRYYAMGWYRQAPGKERELVARISSSGGRTYYADSVKGRFTISRDNAKNTVYLQMNSLKPEDTAVYYCNTADYHGRWAFAWYGDYWGQGTQVTVSS”, the “polyreactivity (PSR sort gate)” value is “high polyreactivity”. The value for “QVQLVESGGGLVQAGGSLRLSCAASGSTFRQYPMGWYRQAPGKEREMVAAITWRGDNTYYADSVKGRFTISRDNAKKTVYLQMNSLKPEDTAVYYCAARWSYRLYWGYGYWGQGTQVTVSS” was “low polyreactivity”; that for “QVQLVESGGGLVQAGGSLRLSCAASGRIFGVYAMGWYRQAPGKERELVAAIRGGGSTKYADSVKGRFTISRDNAKNTVYLQMNSLKPEDTAVYYCAARKRYYKHDYWGQGTQVTVSS” was “low polyreactivity”; that for “QVQLVESGGGLVQAGGSLRLSCAASGRTFPYYAMGWSRQAPGKERELVAAITRGGNTNYADSVKGRFTISRDNAKNTVYLQMNSLKPEDTAVYYCAALVRAGPRRGTIYDYWGQGTQVTVSS” was “high polyreactivity”. Consider “QVQLVESGGGLVQAGGSLRLSCAASGYTFGVNAMGWYRQAPGKERELVAAISRSGGRTYYADSVKGRFTISRDNAKNTVYLQMTSLKPEDTAVYYCAKDRSGSYYNFPEYDYWGQGTQVTVSS”, for which the “polyreactivity (PSR sort gate)” value is on record as “high polyreactivity”. The value for “QVQLVESGGGLVQAGGSLRLSCAASGRIFFTNAMGWYRQAPGKERELVAAISKSGARTYYADSVKGRFTISRDNAKNTVYLQMNSLKPEDTAVYYCAADVSVSGYGYWGQGTQVTVSS” was “high polyreactivity”. For the sequence “QVQLQESGGGLVQAGGGLRLSCAESGTISGPHVMRWYRQATGKEREFVAAINVGAYTYYADNVKGRFTISRDNEKNTVYLQMNSLKPEDTAFYYCAAFARYSRRYYYWGQGTQVTVSS”, the “polyreactivity (PSR sort gate)” value is given as “low polyreactivity”. Under “QYQLVESVGGLDQAGGTLRLSCAASARIFSYYAMGWYRQAPGKERELVATISYSGGSTYYADSVKGRFTISRDKAKNTVYLQMNSLKPEDSAVYYCAATRYPYFSFVRFPSRRFNYWGQGTQVTVSS” stands “high polyreactivity”; under “QVQLVESGGGLVQAGGSLRLICADSGSTFTGNAMGWYRQAPGKERELVAAISRSGGRTYYADSVKGRFTISRDNAKNTVYLQMNSLKPEDTAVYYCNAVRNRGQRTAFDYWGQGTQVTVSS”, “high polyreactivity”. In the case of “QVQLVESGGGLVQAGGSLRLICAASGLTSGLNAMGWYRPAPGKERELVATIRTNGGSTYYADSVKGRFTISRDNAKNNVYLQMNSLKPEDTAVYYCAADDKGGFAVEYDYWGQGTQVTVSS”, the “polyreactivity (PSR sort gate)” value is reported as “low polyreactivity”. The value for “QVQLVESGGGLVQAGGSLRLSCAASGITSNTYAKGWYRQATGKERELVATITSGGSTNYADSVKGRFTISRDNAKNTVYLQMNSLKPEDTAVYFCNREYWLPTQFDYWGQGTQVTVSS” was “low polyreactivity”. Under “QVQLVESGGGLVQAGGSLRLSCAASGSTFRIYAMGWYRQAPGKERELVAGITRRGGSTFYADSVKGRFTISRDNAKNTVYLQMNSLKPEDTAVYYCAARFRGGMDYWGQGTQVTVSS” stands “high polyreactivity”. As to “QVQLVESGGGLVQAGGSLRLSCAAAGSTFRYYAMGWYRHAPGKDRELVAAITSGGNTYNADSVKGRFTISRDNAKNTVYLLMNSLKPEDTAVYYCAAVGYLKYDNWGQGTQVTVSS”, the “polyreactivity (PSR sort gate)” value was “low polyreactivity”. Regarding “QVQLVESGGGLVQAGGSLRLSCAASGLIFRAYAMGWSRPAPGKERELVAAITSSSGSTYYADSVKGRFTISRDNAKNTVYLQMNSLTPEDTAVYYCNAYSTFGWYDYWGQGTQVTVSS”, the “polyreactivity (PSR sort gate)” value is “low polyreactivity”.

The values are drawn from the nanobody polyreactivity screen of Harvey et al. (2022).
